According to article PMC8769072, “Proteome‐scale mapping of binding sites in the unstructured regions of the human proteome” (Molecular Systems Biology, 2022):
Where no end group is shown, it is not given here. [ ]: non-standard residue; d: D form. The star is where a group is joined. FITC = O=C1OC2(c3ccc(O)cc3Oc3cc(O)ccc32)c2ccc(NC(=S)*)cc21; pS = N[C@@H](COP(=O)(O)O)C(=O)O

Key:
[1] = target: MDM2 SWIB, cleaved from the His‐GST tag, for affinity measurements (human); assay: fluorescence polarisation; competition: unlabelled peptide in serial dilution displaces a FITC-labelled probe peptide from the bait domain (master mix with protein at four times the KD of the probe, 10 nM probe, 2 mM DTT); 50 mM KPO4 or NaPO4 pH 7.5; triplicates; probe for KEAP1 Kelch: FITC-NFE2L1 228-243, other probes in Dataset EV6
[2] = target: KPNA4 ARM, MBP‐tagged domain, for affinity measurements (human); assay: fluorescence polarisation; competition on MBP-tagged KPNA4 ARM: unlabelled peptide in serial dilution displaces FITC-Myc 320-328 (probe for the major pocket) or FITC-NCOR2 1307-1322 (probe for the minor pocket); 50 mM KPO4 pH 7.5; triplicates
[3] = target: TLN1 PTB (talin-1, phosphotyrosine binding-like domain) (human) (UniProt Q9Y490); assay: fluorescence polarisation; direct saturation binding: protein in serial dilution, FITC-labelled probe peptide fixed (master mix 10 nM probe, 2 mM DTT); 50 mM KPO4 or NaPO4 pH 7.5; quadratic fit
[4] = target: KEAP1 Kelch domain, MBP-tagged (human) (UniProt Q14145); assay: fluorescence polarisation; competition: unlabelled peptide in serial dilution against FITC-labelled probe peptide and protein (master mix with protein at four times the KD), 50 mM KPO4 pH 7.5; sigmoidal dose-response fit, KI
[5] = target: KEAP1 Kelch (kelch-like ECH-associated protein 1, Kelch domain) (human) (UniProt Q14145); assay: fluorescence polarisation; competition: unlabelled peptide in serial dilution against the protein domain (master mix at four times the KD) with its FITC-labelled probe peptide; 50 mM KPO4 or NaPO4 pH 7.5; Ki calculated from IC50
[6] = target: SFN 14-3-3 (14-3-3 protein sigma) (human) (UniProt P31947); assay: fluorescence polarisation; direct saturation binding: protein in serial dilution, FITC-labelled probe peptide fixed (master mix 10 nM probe, 2 mM DTT); 50 mM KPO4 or NaPO4 pH 7.5; quadratic fit
[7] = target: KPNB1 HEAT (importin subunit beta-1, HEAT repeat) (human) (UniProt Q14974); assay: as above
[8] = target: KPNA4 ARM (importin subunit alpha-3, armadillo repeat domain) (human) (UniProt O00629); assay: as above
[9] = target: SFN 14-3-3 (14-3-3 protein sigma) (human) (UniProt P31947); assay: fluorescence polarisation; competition: unlabelled peptide in serial dilution against the protein domain (master mix at four times the KD) with its FITC-labelled probe peptide; 50 mM KPO4 or NaPO4 pH 7.5; Ki calculated from IC50

THFAELWGHLDHTMFF [RNF115_(69–84) peptide, synthetic] showed a Ki [1] of 0.17 µM.

Work on KCRRQRQDQTLELVGL [NKX2‐5_(192–207) K194R mutant peptide, synthetic, P52952 192-207] yielded a fold loss of affinity against the wild-type peptide [2] of 10 fold.

{FITC}-FPTDERSWVYSPLHYS-NH2 [FITC-PIP5K1C 640-655 probe peptide] gave a Kd [3] of 0.15 µM.

With Ac-PPLPPPPLPPAPSLPY-NH2 [ATF5 128-143 peptide] the Ki [4] was 1470 µM, the IC50 [5] was 4430 µM and the Ki [5] was 1470 µM.

Ac-YMQHLQEQQQQQMHLQ-NH2 [TREF1 332-347 peptide] gave a Ki [4] of 162 µM, an IC50 [5] of 490 µM and a Ki [5] of 162 µM.

Work on {FITC}-QRST[pS]TPNVH-NH2 [FITC-RAF phosphopeptide probe] yielded a Kd [6] of 524 µM.

{FITC}-VATFVFGQSS-NH2 [FITC-NUP153 1223-1232 probe peptide] gave a Kd [7] of 106 µM.

{FITC}-PKRTYDMMEGRVGRAI [FITC-NCOR2 1307-1322 probe peptide] showed a Kd [8] of 0.23 µM.

Ac-NEPTTPSWLADIPPWVP-NH2 [MAP1A 1831-1847 peptide] showed an IC50 [9] of 1970 µM.

With {FITC}-PAAKRVKLD [FITC-Myc 320-328 probe peptide] the Kd [8] was 0.03 µM.
